Positions count from the first letter of the chain named. In names and notes the source's numbering stands. One block for each binder: values may come before it.
How the values were obtained:
[1] = molecular target: T1, Homo sapiens QSOX1 (recombinant HsQSOX1) (Homo sapiens, UniProt O00391 33-546, limits assumed); assay: cell-based or functional assay
T1 sequence: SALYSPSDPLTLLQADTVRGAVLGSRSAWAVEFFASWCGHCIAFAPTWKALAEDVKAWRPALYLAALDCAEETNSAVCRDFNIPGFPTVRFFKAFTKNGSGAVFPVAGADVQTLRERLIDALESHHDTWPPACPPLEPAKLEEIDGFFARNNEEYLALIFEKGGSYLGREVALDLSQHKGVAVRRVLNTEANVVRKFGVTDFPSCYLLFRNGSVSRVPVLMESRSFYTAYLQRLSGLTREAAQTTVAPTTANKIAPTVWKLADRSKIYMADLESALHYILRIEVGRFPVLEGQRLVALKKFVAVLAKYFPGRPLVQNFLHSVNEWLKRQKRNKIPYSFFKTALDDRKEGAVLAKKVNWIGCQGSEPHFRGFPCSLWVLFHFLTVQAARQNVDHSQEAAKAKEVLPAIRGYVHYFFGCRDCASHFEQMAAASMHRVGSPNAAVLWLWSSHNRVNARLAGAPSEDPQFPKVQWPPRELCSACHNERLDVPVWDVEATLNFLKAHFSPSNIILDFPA

MmQSOX1 A116P = MmQSOX1 A116P (Mus musculus); assay: cell-based or functional assay
[2] = molecular target: MmQSOX1 TLPG(138-141)VFPV (Mus musculus); assay: cell-based or functional assay
[3] = molecular target: MmQSOX1 A116P and TLPG(138-141)VFPV (Mus musculus); assay: cell-based or functional assay
biotinylated MmQSOX1Trx = molecular target: T2, biotinylated MmQSOX1Trx (Mus musculus, UniProt Q8BND5 36-275, Biotin on the lysine of the C-terminal AviTag (tag not in the letters); in early screening rounds pre-loaded with streptavidin-APC); assay: yeast-surface display flow cytometry
T2 construct: Used for yeast-surface display; in the first screening rounds pre-loaded with streptavidin-APC in a 1:4 molar ratio; also called MmQSOX1Trx with AviTag; not shown: purification tag
T2 sequence: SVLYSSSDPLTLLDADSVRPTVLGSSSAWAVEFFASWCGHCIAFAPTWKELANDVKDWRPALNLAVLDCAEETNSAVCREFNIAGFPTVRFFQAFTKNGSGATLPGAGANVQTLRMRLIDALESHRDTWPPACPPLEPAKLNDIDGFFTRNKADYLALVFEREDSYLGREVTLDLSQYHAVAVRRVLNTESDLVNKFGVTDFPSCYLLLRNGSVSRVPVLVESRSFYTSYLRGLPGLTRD

MmQSOX1Trx [4] = molecular target: T3, MmQSOX1Trx (Mus musculus, UniProt Q8BND5 36-275); assay: analytical size-exclusion chromatography
T3 construct: Residues 36-275 of Mus musculus QSOX1, made in E. coli, purified on Ni-NTA; also called MmQSOX1Trv; Trx module of MmQSOX1
T3 sequence: T2 sequence
Experimental: (§1) MsQSOX1-antibody complexes were injected after a 30 min co-incubation at 4° C. Elution of proteins was monitored by absorbance at 280 nm.

MmQSOX1Erv = molecular target: T4, MmQSOX1Erv (Mus musculus, UniProt Q8BND5 289-550, FAD cofactor bound); assay: analytical size-exclusion chromatography
T4 construct: also called MmQSOX1 Erv module
T4 sequence: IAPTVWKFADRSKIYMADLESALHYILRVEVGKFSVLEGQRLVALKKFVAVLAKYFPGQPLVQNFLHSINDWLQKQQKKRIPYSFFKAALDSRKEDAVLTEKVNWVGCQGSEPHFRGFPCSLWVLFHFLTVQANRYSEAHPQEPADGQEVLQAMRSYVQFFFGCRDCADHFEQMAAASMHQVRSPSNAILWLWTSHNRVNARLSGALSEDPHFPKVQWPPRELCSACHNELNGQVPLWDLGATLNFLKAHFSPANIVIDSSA
Experimental: as §1

MmQSOX1Trx [5] = molecular target: T3, MmQSOX1Trx; assay: complex purified by size-exclusion chromatography
Experimental: A stop codon was inserted after the CH1 segment of the heavy chain, to obtain a coding sequence for a Fab fragment. […] Prior to crystallization the complexes were concentrated to 10 mg/ml.

percent inhibition of enzyme activity, oxygen consumption assay [1]: 100%
percent inhibition of enzyme activity, oxygen consumption assay (MmQSOX1 A116P): ~60%
percent inhibition of enzyme activity, oxygen consumption assay [2]: ~50%
percent inhibition of enzyme activity, oxygen consumption assay [3]: 100%
B1: MAb492.1 (antibody, V domains shown)
VH: QVQLKQSGPGLVAPSQSLSITCTVSGFSLTGYGVNWVRQSPGKGLEWLGMIWGDGRTDYKSALKSRLSITKDNSKSQVFLKMNSLQTDDTARYFCASDYYGSGSFAYWGQGTLVTVSA
VL: DVVMTQTHKFMSTSVGDRVSITCKASQDVSTAVAWYQQKSGQSPKLLIHSASYRYTGVPDRFTGSGSGTDFTFTISSVQAEDLAVYYCQQHYSIPLTFGAGTKLELK

binding result (biotinylated MmQSOX1Trx): binds
B2: scFv492.1 S93A Y99S Y100K G101D S102P D58E T31G H49S S50M Y52Q (scFv, V domains shown)
VH: B1 VH with D58E, Y99S, Y100K, G101D, S102P
VL: B1 VL with T31G, H49S, S50M, Y53Q, S93A
notes: also called template d; not shown: scFv linker and domain order; yeast display fusion partner and cMyc tag (pETCON)

binding result (MmQSOX1Trx [4]): binds
binding result (MmQSOX1Erv): no binding
B3: MAb316.1 (antibody, V domains shown)
VH: QVQLQQSGPELVKPGASVKISCKASGYSFTSYYIHWVKQRPGQGLEWIGWIYPGSYNTEYSEKFKGKATLTADTSSSTAYMQLSSLTSEDSAVYYCARSEDWFAYWGQGTLVTVS
VL: QIVLTQSPAIMSASPGEKVTISCSASSSVSYMYWYHQKPGSSPKPWIYRTSNLASGVPARFSGSGSGTSYSLTISSMEAEDAATYYCQQYHSYPLTFGAGTKLELK
notes: Hybridoma antibody from QSOX1 knock-out mice immunised with MmQSOX1

binding result (MmQSOX1Trx [5]): binds
B4: Fab316.1 (Fab, V domains shown)
VH: B3 VH
VL: B3 VL
notes: also called Fab fragment of MAb316.1

Source: patent US20180273639A1 (YEDA RESEARCH AND DEVELOPMENT, published 2018)
